In patent US10889805B2, “Intestinal epithelioid cells” (National Institutes of Biomedical Innovation, Health and …, priority 2015, dated 2021):

Assays:
ANPEP = ANPEP expression by quantitative real-time RT-PCR in cells differentiating from human iPS cells to enterocyte-like cells; type: cell-based; conditions: compound added with BIO and DAPT, 5 days culture; versus control without the compounds; FIG. 2B
Protocol: (§1) The definitive endoderm cells generated from the human iPS cell line (Tic) by the method described in Example 1 above were further cultured for 15 days using the medium 3. During a period from day 4 to day 19 after the initiation of differentiation induction, BIO (5 μM) and DAPT (10 μM) were added to the culture system. Simultaneously with the addition of the BIO and the DAPT, the cells were further cultured for 5 days using the medium 3 supplemented with any one of phorbol-myristate-acetate (PMA), transforming growth factor β1 (TGEβ1), Wortmannin, Noggin, SB431542, Follistatin, EGF, R-spondin1, Pentagastrin, or Wnt3a (FIG. 2A and FIG. 3A).
(§2) With regard to the measurement of the enterocyte markers ANPEP and VILLIN, each of the enterocyte markers was measured by a quantitative real-time RT-PCR method using SYBR Green gene expression assays (APPLIED BIOSYSTEMS). […] Thus, high expressions of ANPEP and VILLIN were found when the cells were cultured in the system containing SB431542, EGF, or Wnt3a.
(§3) The quantitative real-time RT-PCR was performed by the following method. […] A quantitative real-time RT-PCR method using SYBR Green gene expression assays (APPLIED BIOSYSTEMS) was performed, and quantification was performed with STEPONEPLUS real-time PCR System (APPLIED BIOSYSTEMS).

VILLIN = VILLIN expression by quantitative real-time RT-PCR in cells differentiating from human iPS cells to enterocyte-like cells; type: cell-based; conditions: compound added with BIO and DAPT, 5 days culture; versus control without the compounds; FIG. 3B
Protocol: as §1, §2, §3

B1: Wnt3a (protein, UniProt P56704 19-352, looked up)
Protein Wnt-3a: SYPIWWSLAVGPQYSSLGSQPILCASIPGLVPKQLRFCRNYVEIMPSVAEGIKIGIQECQHQFRGRRWNCTTVHDSLAIFGPVLDKATRESAFVHAIASAGVAFAVTRSCAEGTAAICGCSSRHQGSPGKGWKWGGCSEDIEFGGMVSREFADARENRPDARSAMNRHNNEAGRQAIASHMHLKCKCHGLSGSCEVKTCWWSQPDFRAIGDFLKDKYDSASEMVVEKHRESRGWVETLRPRYTYFKVPTERDLVYYEASPNFCEPNPETGSFGTRDRTCNVSSHGIDGCDLLCCGRGHNARAERRREKCRCVFHWCCYVSCQECTRVYDVHTCK
notes: humoral factor added to the culture system
expression of ANPEP (ANPEP): high value | expression of VILLIN (VILLIN): high value
